Experimental data from patent publication US20200024330A1.

How the values were obtained:
Test in all cases: cell-based or functional assay
[1] = target: HIV-1 Env of isolate MGRM-C-012 (HIV-1)
[2] = target: HIV-1 Env of isolate MGRM-G-006 (HIV-1)
[3] = target: HIV-1 NL43 envelope glycoprotein (Env) on pseudovirus (HIV-1)
[4] = target: HIV-1 Env of isolate MGRM-Chronic-B-020 (HIV-1)
[5] = target: HIV-1 Env of isolate MGRM-G-011 (HIV-1)
[6] = target: HIV-1 Env of isolate MGRM-G-009 (HIV-1)
[7] = target: aMLV envelope (negative control pseudovirus)
[8] = target: HIV-1 Env of isolate MGRM-G-014 (HIV-1)
[9] = target: HIV-1 Env of isolate MGRM-Chronic-B-017 (HIV-1)
[10] = target: HIV-1 92TH021 envelope glycoprotein (Env) on pseudovirus (HIV-1)
[11] = target: HIV-1 Env of isolate MGRM-Chronic-B-012 (HIV-1)
[12] = target: HIV-1 Env of isolate MGRM-Chronic-B-023 (HIV-1)
[13] = target: HIV-1 Env of isolate MGRM-G-027 (HIV-1)
[14] = target: HIV-1 Env of isolate MGRM-G-016 (HIV-1)
[15] = target: HIV-1 Env of isolate MGRM-G-025 (HIV-1)
[16] = target: HIV-1 Env of isolate MGRM-G-019 (HIV-1)
[17] = target: HIV-1 Env of isolate MGRM-F1-014 (subtype F), on pseudovirus (HIV-1)
[18] = target: HIV-1 92BR020 envelope glycoprotein (Env) on pseudovirus (HIV-1)
[19] = target: HIV-1 Env of isolate MGRM-Chronic-B-024 (HIV-1)
[20] = target: HIV-1 Env of isolate JRFL (HIV-1)
[21] = target: HIV-1 92UG024 envelope glycoprotein (Env) on pseudovirus (HIV-1)
[22] = target: HIV-1 Env of isolate MGRM-Chronic-B-011 (HIV-1)
[23] = target: HIV-1 Env of isolate MGRM-G-004 (HIV-1)
[24] = target: HIV-1 Env of isolate MGRM-Chronic-B-010 (HIV-1)
[25] = target: HIV-1 Env of isolate MGRM-G-001 (HIV-1)
[26] = target: HIV-1 Env of isolate MGRM-Chronic-B-018 (HIV-1)
[27] = target: HIV-1 Env of isolate MGRM-G-013 (HIV-1)
[28] = target: HIV-1 Env of isolate MGRM-G-017 (HIV-1)
[29] = target: HIV-1 92RW020 envelope glycoprotein (Env) on pseudovirus (HIV-1)
[30] = target: HIV-1 Env of isolate MGRM-G-015 (HIV-1)

With 5147_N06 (PGT-130) (antibody) the IC50 [1] was greater than 50 µg/mL, the IC50, pseudovirus neutralization [2] was greater than 50 µg/mL and the IC50 (ug/ml), neutralizing activity [3] was greater than 10 µg/mL. For the same substance, the IC50 [4] was 0.014 µg/mL, the IC50, pseudovirus neutralization [5] was greater than 50 µg/mL and the IC50, pseudovirus neutralization [6] was greater than 50 µg/mL. The IC50, pseudovirus neutralization [7] was greater than 50 µg/mL, the IC50, pseudovirus neutralization [8] was 2.23 µg/mL and the IC50 [9] was greater than 50 µg/mL. It also gave an IC50 (ug/ml), neutralizing activity [10] of 0.0082 µg/mL, an IC50 [11] of 0.373 µg/mL and an IC50 [12] greater than 50 µg/mL. For the same substance, the IC50, pseudovirus neutralization [13] was 4.14 µg/mL, the IC50, pseudovirus neutralization [14] was greater than 50 µg/mL and the IC50, pseudovirus neutralization [15] was 8.45 µg/mL. For the same substance, the IC50, pseudovirus neutralization [16] was 27.9 µg/mL, the IC50, pseudovirus neutralization [17] was 11.8 µg/mL and the IC50 (ug/ml), neutralizing activity [18] was 1.12 µg/mL. The IC50 [19] was 5.78 µg/mL, the IC50 [20] was 0.046 µg/mL and the IC50 (ug/ml), neutralizing activity [21] was greater than 10 µg/mL. For the same substance, the IC50 [22] was 0.153 µg/mL, the IC50, pseudovirus neutralization [23] was greater than 50 µg/mL and the IC50 [24] was 0.006 µg/mL. The IC50, pseudovirus neutralization [25] was 0.0198 µg/mL, the IC50 [26] was 31.9 µg/mL and the IC50, pseudovirus neutralization [27] was greater than 50 µg/mL. It also gave an IC50, pseudovirus neutralization [28] greater than 50 µg/mL, an IC50 (ug/ml), neutralizing activity [29] of 0.014 µg/mL and an IC50, pseudovirus neutralization [30] greater than 50 µg/mL.
